B1: TR01H040-E2702GsKsc/H0610-E2704sEpsc/L0208-k0 (bispecific antibody, human IgG4 S228P, kappa, N297A)
heavy 1: QVQLVESGGGLVQPGRSLRLSCAASGFTFSNAWMHWVRQAPGKGLEWVAQIKDKSQNYATYYAESVKGRFTISRADSKNSIYLQMNSLKTEDTAVYYCRYVHYSASYGVDAWGQGTTVTVSSASTKGPSVFPLAPCSRSTSESTAALGCLVKDYFPEPVTVSWNSGALTSGVHTFPAVLQSSGLYSLSSVVTVPSSSLGTKTYTCNVDHKPSNTKVDKRVESKYGPPCPPCPAPEFRGGPKVFLFPPKPKDTLMISRTPEVTCVVVDVSQEDPEVQFNWYVDGVEVHNAKTKPREEQFASTYRVVSVLTVLHQDWLNGKEYKCKVSNKGLPSSIEKTISKAKGQPREPQVYTLPPSQKEMTKNQVSLTCLVKGFYPSDIAVEWESNGQPENNYKTTPPVLDSDGSFFLYSKLTVDKSRWQEGNVFSCSVMHEALHNRYTQKSLSLSP
heavy 2: QVQLVQSGAEVKKPGASVKVSCKASGYTFTDYEMHWIRQPPGQGLEWIGAIDGKTPDTAYSQKFKGRVTLTADKSTSTAYMELSSLTSEDTAVYYCTRFYSYTYWGQGTLVTVSSASTKGPSVFPLAPCSRSTSESTAALGCLVKDYFPEPVTVSWNSGALTSGVHTFPAVLQSSGLYSLSSVVTVPSSSLGTQTYTCNVDHKPSNTKVDKRVESKYGPPCPPCPAPEFRGGPKVFLFPPKPKDTLMISRTPEVTCVVVDVSQEDPEVQFNWYVDGVEVHNAKTKPREEQFASTYRVVSVLTVLHQDWLNGKEYKCKVSNKGLPSSIEKTISKAKGQPREPQVYTLPPSQEEMTKNQVSLTCLVKGFYPSDIAVEWESNGQPENNYKTTPPVLDSDGSFFLYSKLTVDKSRWQEGNVFSCSVMHEALHNHYTQESLSLSP
light: DIVMTQSPLSLPVTPGEPASISCRSSQSPVHSNRNTYLHWYQQKPGQAPRLLIYKVSNRFWGVPDRFSGSGSGTDFTLKISRVEAEDVGVYYCYQGTQVPYTFGQGTKLEIKRTVAAPSVFIFPPSDEQLKSGTASVVCLLNNFYPREAKVQWKVDNALQSGNSQESVTEQDSKDSTYSLSSTLTLSKADYEKHKVYACEVTHQGLSSPVTKSFNRGEC
B2: TR01H040-E2702GsKsc/H0610-E2704sEpsc/L0209-k0 (bispecific antibody, human IgG4 S228P, kappa, N297A)
heavy 1: QVQLVESGGGLVQPGRSLRLSCAASGFTFSNAWMHWVRQAPGKGLEWVAQIKDKSQNYATYYAESVKGRFTISRADSKNSIYLQMNSLKTEDTAVYYCRYVHYSASYGVDAWGQGTTVTVSSASTKGPSVFPLAPCSRSTSESTAALGCLVKDYFPEPVTVSWNSGALTSGVHTFPAVLQSSGLYSLSSVVTVPSSSLGTKTYTCNVDHKPSNTKVDKRVESKYGPPCPPCPAPEFRGGPKVFLFPPKPKDTLMISRTPEVTCVVVDVSQEDPEVQFNWYVDGVEVHNAKTKPREEQFASTYRVVSVLTVLHQDWLNGKEYKCKVSNKGLPSSIEKTISKAKGQPREPQVYTLPPSQKEMTKNQVSLTCLVKGFYPSDIAVEWESNGQPENNYKTTPPVLDSDGSFFLYSKLTVDKSRWQEGNVFSCSVMHEALHNRYTQKSLSLSP
heavy 2: QVQLVQSGAEVKKPGASVKVSCKASGYTFTDYEMHWIRQPPGQGLEWIGAIDGKTPDTAYSQKFKGRVTLTADKSTSTAYMELSSLTSEDTAVYYCTRFYSYTYWGQGTLVTVSSASTKGPSVFPLAPCSRSTSESTAALGCLVKDYFPEPVTVSWNSGALTSGVHTFPAVLQSSGLYSLSSVVTVPSSSLGTQTYTCNVDHKPSNTKVDKRVESKYGPPCPPCPAPEFRGGPKVFLFPPKPKDTLMISRTPEVTCVVVDVSQEDPEVQFNWYVDGVEVHNAKTKPREEQFASTYRVVSVLTVLHQDWLNGKEYKCKVSNKGLPSSIEKTISKAKGQPREPQVYTLPPSQEEMTKNQVSLTCLVKGFYPSDIAVEWESNGQPENNYKTTPPVLDSDGSFFLYSKLTVDKSRWQEGNVFSCSVMHEALHNHYTQESLSLSP
light: DIVMTQSPLSLPVTPGEPASISCRSSQSPVHSNRNTYIHWYQQKPGQAPRLLIYKVSNRFSGVPDRFSGSGSGTDFTLKISRVEAEDVGVYYCYQGTQVPYTFGQGTKLEIKRTVAAPSVFIFPPSDEQLKSGTASVVCLLNNFYPREAKVQWKVDNALQSGNSQESVTEQDSKDSTYSLSSTLTLSKADYEKHKVYACEVTHQGLSSPVTKSFNRGEC
B3: TR01H040-E2702GsKsc/H0610-E2704sEpsc/L0211-k0 (bispecific antibody, human IgG4 S228P, kappa, N297A)
heavy 1: QVQLVESGGGLVQPGRSLRLSCAASGFTFSNAWMHWVRQAPGKGLEWVAQIKDKSQNYATYYAESVKGRFTISRADSKNSIYLQMNSLKTEDTAVYYCRYVHYSASYGVDAWGQGTTVTVSSASTKGPSVFPLAPCSRSTSESTAALGCLVKDYFPEPVTVSWNSGALTSGVHTFPAVLQSSGLYSLSSVVTVPSSSLGTKTYTCNVDHKPSNTKVDKRVESKYGPPCPPCPAPEFRGGPKVFLFPPKPKDTLMISRTPEVTCVVVDVSQEDPEVQFNWYVDGVEVHNAKTKPREEQFASTYRVVSVLTVLHQDWLNGKEYKCKVSNKGLPSSIEKTISKAKGQPREPQVYTLPPSQKEMTKNQVSLTCLVKGFYPSDIAVEWESNGQPENNYKTTPPVLDSDGSFFLYSKLTVDKSRWQEGNVFSCSVMHEALHNRYTQKSLSLSP
heavy 2: QVQLVQSGAEVKKPGASVKVSCKASGYTFTDYEMHWIRQPPGQGLEWIGAIDGKTPDTAYSQKFKGRVTLTADKSTSTAYMELSSLTSEDTAVYYCTRFYSYTYWGQGTLVTVSSASTKGPSVFPLAPCSRSTSESTAALGCLVKDYFPEPVTVSWNSGALTSGVHTFPAVLQSSGLYSLSSVVTVPSSSLGTQTYTCNVDHKPSNTKVDKRVESKYGPPCPPCPAPEFRGGPKVFLFPPKPKDTLMISRTPEVTCVVVDVSQEDPEVQFNWYVDGVEVHNAKTKPREEQFASTYRVVSVLTVLHQDWLNGKEYKCKVSNKGLPSSIEKTISKAKGQPREPQVYTLPPSQEEMTKNQVSLTCLVKGFYPSDIAVEWESNGQPENNYKTTPPVLDSDGSFFLYSKLTVDKSRWQEGNVFSCSVMHEALHNHYTQESLSLSP
light: DIVMTQSPLSLPVTPGEPASISCRSSQPPVHSNRNTYLHWYQQKPGQAPRLLIYKVSNRFSGVPDRFSGSGSGTDFTLKISRVEAEDVGVYYCYQGTQVPYTFGQGTKLEIKRTVAAPSVFIFPPSDEQLKSGTASVVCLLNNFYPREAKVQWKVDNALQSGNSQESVTEQDSKDSTYSLSSTLTLSKADYEKHKVYACEVTHQGLSSPVTKSFNRGEC
B4: TR01H040-E2702GsKsc/H0610-E2704sEpsc/L0204-k0 (bispecific antibody, human IgG4 S228P, kappa, N297A)
heavy 1: QVQLVESGGGLVQPGRSLRLSCAASGFTFSNAWMHWVRQAPGKGLEWVAQIKDKSQNYATYYAESVKGRFTISRADSKNSIYLQMNSLKTEDTAVYYCRYVHYSASYGVDAWGQGTTVTVSSASTKGPSVFPLAPCSRSTSESTAALGCLVKDYFPEPVTVSWNSGALTSGVHTFPAVLQSSGLYSLSSVVTVPSSSLGTKTYTCNVDHKPSNTKVDKRVESKYGPPCPPCPAPEFRGGPKVFLFPPKPKDTLMISRTPEVTCVVVDVSQEDPEVQFNWYVDGVEVHNAKTKPREEQFASTYRVVSVLTVLHQDWLNGKEYKCKVSNKGLPSSIEKTISKAKGQPREPQVYTLPPSQKEMTKNQVSLTCLVKGFYPSDIAVEWESNGQPENNYKTTPPVLDSDGSFFLYSKLTVDKSRWQEGNVFSCSVMHEALHNRYTQKSLSLSP
heavy 2: QVQLVQSGAEVKKPGASVKVSCKASGYTFTDYEMHWIRQPPGQGLEWIGAIDGKTPDTAYSQKFKGRVTLTADKSTSTAYMELSSLTSEDTAVYYCTRFYSYTYWGQGTLVTVSSASTKGPSVFPLAPCSRSTSESTAALGCLVKDYFPEPVTVSWNSGALTSGVHTFPAVLQSSGLYSLSSVVTVPSSSLGTQTYTCNVDHKPSNTKVDKRVESKYGPPCPPCPAPEFRGGPKVFLFPPKPKDTLMISRTPEVTCVVVDVSQEDPEVQFNWYVDGVEVHNAKTKPREEQFASTYRVVSVLTVLHQDWLNGKEYKCKVSNKGLPSSIEKTISKAKGQPREPQVYTLPPSQEEMTKNQVSLTCLVKGFYPSDIAVEWESNGQPENNYKTTPPVLDSDGSFFLYSKLTVDKSRWQEGNVFSCSVMHEALHNHYTQESLSLSP
light: DIVMTQSPLSLPVTPGEPASISCRSSQSPVHSNRNTYLHWYQQKPGQAPRLLIYKVSNRFRGVPDRFSGSGSGTDFTLKISRVEAEDVGVYYCGQGTQVPYTFGQGTKLEIKRTVAAPSVFIFPPSDEQLKSGTASVVCLLNNFYPREAKVQWKVDNALQSGNSQESVTEQDSKDSTYSLSSTLTLSKADYEKHKVYACEVTHQGLSSPVTKSFNRGEC
B5: TR01H040-E2702GsKsc/H0610-E2704sEpsc/L0206-k0 (bispecific antibody, human IgG4 S228P, kappa, N297A)
heavy 1: QVQLVESGGGLVQPGRSLRLSCAASGFTFSNAWMHWVRQAPGKGLEWVAQIKDKSQNYATYYAESVKGRFTISRADSKNSIYLQMNSLKTEDTAVYYCRYVHYSASYGVDAWGQGTTVTVSSASTKGPSVFPLAPCSRSTSESTAALGCLVKDYFPEPVTVSWNSGALTSGVHTFPAVLQSSGLYSLSSVVTVPSSSLGTKTYTCNVDHKPSNTKVDKRVESKYGPPCPPCPAPEFRGGPKVFLFPPKPKDTLMISRTPEVTCVVVDVSQEDPEVQFNWYVDGVEVHNAKTKPREEQFASTYRVVSVLTVLHQDWLNGKEYKCKVSNKGLPSSIEKTISKAKGQPREPQVYTLPPSQKEMTKNQVSLTCLVKGFYPSDIAVEWESNGQPENNYKTTPPVLDSDGSFFLYSKLTVDKSRWQEGNVFSCSVMHEALHNRYTQKSLSLSP
heavy 2: QVQLVQSGAEVKKPGASVKVSCKASGYTFTDYEMHWIRQPPGQGLEWIGAIDGKTPDTAYSQKFKGRVTLTADKSTSTAYMELSSLTSEDTAVYYCTRFYSYTYWGQGTLVTVSSASTKGPSVFPLAPCSRSTSESTAALGCLVKDYFPEPVTVSWNSGALTSGVHTFPAVLQSSGLYSLSSVVTVPSSSLGTQTYTCNVDHKPSNTKVDKRVESKYGPPCPPCPAPEFRGGPKVFLFPPKPKDTLMISRTPEVTCVVVDVSQEDPEVQFNWYVDGVEVHNAKTKPREEQFASTYRVVSVLTVLHQDWLNGKEYKCKVSNKGLPSSIEKTISKAKGQPREPQVYTLPPSQEEMTKNQVSLTCLVKGFYPSDIAVEWESNGQPENNYKTTPPVLDSDGSFFLYSKLTVDKSRWQEGNVFSCSVMHEALHNHYTQESLSLSP
light: DIVMTQSPLSLPVTPGEPASISCRSSQSPVHSNRNTYLHWYQQKPGQAPRLLIYKVSNRFSGVPDRFSGSGSGTDFTLKISRVEAEDVGVYYCYQGTQVPYTFGQGTKLEIKRTVAAPSVFIFPPSDEQLKSGTASVVCLLNNFYPREAKVQWKVDNALQSGNSQESVTEQDSKDSTYSLSSTLTLSKADYEKHKVYACEVTHQGLSSPVTKSFNRGEC

This assay addresses extracellular matrix (ECM; BD Matrigel). The assay is described as follows: ECL on Matrigel-coated plate, signal divided by that of MRAH-G1d/MRAL-k0.
On to B1, for which the ECM binding ratio (standard = 1) (ratio to standard antibody) was found to be 50.4.
For B2, the ECM binding ratio (standard = 1) (ratio to standard antibody) was 7.4.
With B3, the ECM binding ratio (standard = 1) (ratio to standard antibody) was determined as 15.5.
For the molecule B4, the ECM binding ratio (standard = 1) (ratio to standard antibody) came to 4.4.
As for B5, the figure is 15.4.

The values above are taken from patent US20170267783A1 (published 2017).
